Reference: patent US20260325634 (published 2026)

Biological target: T1, CD123 (IL-3R alpha) (human, UniProt P26951)
T1 chain: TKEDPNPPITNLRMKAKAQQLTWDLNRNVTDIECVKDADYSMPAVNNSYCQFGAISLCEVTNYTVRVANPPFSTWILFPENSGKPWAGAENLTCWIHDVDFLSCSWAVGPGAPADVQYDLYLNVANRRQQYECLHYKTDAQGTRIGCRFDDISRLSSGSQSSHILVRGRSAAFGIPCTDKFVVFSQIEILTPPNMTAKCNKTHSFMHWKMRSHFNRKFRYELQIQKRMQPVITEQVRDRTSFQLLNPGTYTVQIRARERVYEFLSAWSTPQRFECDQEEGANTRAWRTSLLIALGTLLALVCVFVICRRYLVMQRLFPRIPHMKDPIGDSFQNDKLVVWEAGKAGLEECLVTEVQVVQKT
Assay: BLI

Kd: < 1 pM
B1: AB1 (18B4D5) (antibody, V domains shown)
VH: EVKLQESGPGLVKPSQSLSLTCTVTGYSITSDYTWNWIRQFPGNKLEWMGYISFSGSTSYNPSLKSRLSITRDTSKNQFFLQLNSVTTEDTATYYCARGLDYWGQGTTLTVSS
VL: DIVMTQSPAIMSASLGERVTMTCTASSSISSSYLYWYQQKPGSSPKLWIYSTSNLASGVPARFSGSGSGTSYSLTISSMEAEDAATYYCHQLHRSPWTFGGGTKLEIKR
